In publication PMC12431793, “Identification of antibodies induced by immunization with the syphilis vaccine candidate Tp0751” (Vaccine, 2025):
Changes are numbered by the printed parent chain.

B1: 2101D12 (antibody, V domains shown)
VH: QQLEESGGGLVKPGGTLTLTCKASGWDFSSSYWISWVRQAPGKGLEWIAYINTDSLKTYYATWAKGRFTVSKTSSTTVTLQVTSLTAADTATYFCADGAFWGPGTLVTVSS
VL: DVVMTQTPASVSAAVGGTVTINCQASQSINSWLSWYQQKPGQPPKRLINDASTLESGVPSRFKGSGCGTQFTLTISDLECADAATYYCQSHYFSRSIDYYNAFGGGTEVVVK
notes: made as rabbit IgG; source: produced and purified as rabbit IgG by Sino Biological
B2: 2092D3 (antibody, V domains shown)
VH: QSVEESGGRLVTPGTPLTLTCTVSGFSLSSYTMSWVRQAPGKGLEWIGVISGSDTLSYATWAKGRFTISKTSTTVDLKITSPTTADTATYFCARDGGYSDYDHAPNIWGPGTLVTVSL
VL: DVVMTQTPASVEAAVGGTVTIKCQASQSIYNYLAWYQQKPGQPPKLLIYQASKVASGVPSRFKGRGSGTQFTLTISDLECADAATYYCQWSFYDSNYIGAFGGGTEVVVK
notes: as for B1
B3: 2101A3 (antibody, V domains shown)
VH: QSLEESGGGLVKPGGTLTLTCKASGFDLSSYYYMCWVRQAPGKGLEWIACTYISSGSTWYASWAKGRFTVSKPSSTTVTLQMTSLTAADTATYFCAREVGSPEYGYYLDLWGPGTLVTVSS
VL: DVVMTQTPASVEAAVGGTVTIKCQASQSISSWLSWYQQKPGQPPKLLIYQASKLASGVPSRFKGSGCGTEYTLTISDLECADGATYYCQTYYGSGSSNYHAFGGGTEVVVK
notes: as for B1
B4: 2091E9 (antibody, V domains shown)
VH: QSVEESGGRLVTPGGSLTLTCTVSGFSLSSYVMTWVRQAPGKGLEWIGYIYIDGYTTWYASWVKGRFTISRTSTTVDLKMTSLSTEDTATYFCVRVGATIDFMMRRLDLWGQGTLVTVSS
VL: DVVMTQTPSSVSAAVRGTVTIKCQASPSVYSDYLSWYQQKPGQRPKLLMYGTSTLASGVPSRFKGSGSGTQFTLTISDVQCDDAATYYCAGGFNSGADSFAFGGGTEVVVQ
notes: as for B1
B5: 2131F4 (antibody, V domains shown)
VH: QSVEESGGDLVKPEGSLTLTCTASEFSFNTNHYVCWVRQAPGKGLEWLACVAGGGSGATYYATWAKGRFTLSRTSSSTVTLEMTSLAPADTATYFCARVDSTDFNFDLWGPGTLVTVSS
VL: DPVMTQTPSPVSAAVGGTVSISCQSSQIVYNDNWLSWYQQKPGQPPKRLIYGTSNSASGVPSRFKGSGCGTQFTLTISDVQCDDAATYYCQGGYLVGDVYVFGGGTEVVVK
notes: as for B1
B6: 2101B3 (antibody, V domains shown)
VH: QSLEESGGDLVKPGASLTLTCTASGLDFSGYYYICWVRQAPGKGLEWIGCIWPGDGDTDYASWAKGRFTVSKTSSTTVDLKVTTLTAADTATYFCGRLLGSGSAYFNLWGPGTLVTVSS
VL: AVVMTQTPSSVSEAVGGTVTIKCQASQTIGEALAWYQQKPGQPPKLLIYKASTVASGVPWRFKGSGCGSEYTLTISGVQCEDAATYYCQQGYSLTIIDNLFGGGTEVVVE
notes: as for B1
B7: 2092E3 (antibody, V domains shown)
VH: B2 VH with F26I, S27D, T32A, S51G, G52D, S53M, T55I, L56V, R94G
VL: DVVMTQTPASVEAAVGGTVTIKCHASESIYDYLAWYQQKPGQPPKLLISKASTLASGVPSGFKASGSGTLFTLTISDLECADAATYYCQWSFYDHYYVGAFGGGTEVVVK
notes: as for B1

Each binder was assayed against T1, Tp0751_(24–237) (Treponema pallidum subsp. pallidum, …, UniProt O83732) (assay: ELISA; titration: plates coated with 15 pmol/well Tp0751_(24–237) in 1xTBS pH 7.4; 0.2 pM-33 nM rabbit antibodies serially diluted in 4 % skim milk in TBS, 1 h at room temperature; anti-rabbit IgG-HRP). Conditions: both partners purified.
T1 construct: The biotinylated, streptavidin-tetramerised form was used only to stain and sort B cells, not in BLI or ELISA; also called soluble Tp0751_(24–237); mature Tp0751 protein
T1 sequence (O83732 24-237): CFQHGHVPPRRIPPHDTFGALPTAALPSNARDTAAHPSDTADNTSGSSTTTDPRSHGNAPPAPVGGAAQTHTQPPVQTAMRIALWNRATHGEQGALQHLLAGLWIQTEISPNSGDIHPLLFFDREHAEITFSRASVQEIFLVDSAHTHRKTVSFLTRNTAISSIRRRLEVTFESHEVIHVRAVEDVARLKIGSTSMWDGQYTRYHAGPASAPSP
B1: binds. B2: binds. B3: binds.

What follows are binders tested against T1, Tp0751_(24–237) (assay: BLI; OctetRed, room temperature, shaking at 500 RPM; 40 μg/mL antibody loaded on Protein A capture biosensors; 0.1, 0.7 or 6 μM Tp0751_(24–237) in solution, 5 min association, 5 min dissociation in kinetics buffer). Conditions: both partners purified.
B4: binds.

Each binder was assayed against T2, Tp0751_(99–237) (Treponema pallidum subsp. pallidum, …, UniProt O83732) (assay: ELISA; epitope mapping: 33pM of antibody on plate-coated Tp0751_(24–237), Tp0751_(99–237) or Tp0751_(115–237)). Conditions: both partners purified.
T2 construct: Tp0751 of Treponema pallidum, amino acids 99-237 (N-terminal truncation; alpha helix cap 99-114 and lipocalin domain 115-237)
T2 sequence (O83732 99-237): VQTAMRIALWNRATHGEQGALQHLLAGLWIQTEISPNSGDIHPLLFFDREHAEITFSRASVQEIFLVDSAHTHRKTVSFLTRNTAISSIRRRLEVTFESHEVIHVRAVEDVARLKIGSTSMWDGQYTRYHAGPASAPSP
B1: binds. B5: no binding (tested: 33pM of antibody). B6: binds. B2: binds. B7: binds. B3: binds.

These binders were tested against T1, Tp0751_(24–237) in the same assay as above. Conditions: both partners purified.
B5: binds. B6: binds. B7: binds.

Each binder was assayed against T3, Tp0751_(115–237) (Treponema pallidum subsp. pallidum, …, UniProt O83732) in the same assay as above. Conditions: both partners purified.
T3 construct: Tp0751 of Treponema pallidum, amino acids 115-237 (N-terminal truncation; lipocalin structural fold); also called Tp0751 lipocalin structural/functional domain
T3 sequence (O83732 115-237): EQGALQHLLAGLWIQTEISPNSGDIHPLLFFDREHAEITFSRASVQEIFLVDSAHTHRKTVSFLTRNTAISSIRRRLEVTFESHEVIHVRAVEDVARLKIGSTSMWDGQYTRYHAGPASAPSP
B1: binds. B5: no binding (tested: 33pM of antibody). B6: binds. B2: no binding (tested: 33pM of antibody). B7: no binding (tested: 33pM of antibody). B4: binds. B3: no binding (tested: 33pM of antibody).
